# In doi:10.1101/2021.07.05.451181 (bioRxiv, 2021):
# B1: GFP-TAX-4 (cyclic nucleotide-gated TAX-4 ion channel with EGFP fused to the cytosolic N-terminus) (natural protein, C. elegans, UniProt Q03611 1-733, looked up)
# chain: MSTAEPAPDPTNPSTSGLAPTTNGIGSPPPTASAATKFSILTKFLRRKNQVHTTTAQQNEFMQKYMPNGNSNAVQPAATGGQPASSDGGSAIEVPPPKESYAVRIRKYLANYTQDPSTDNFYYWTCVVTVAYIYNLLFVIARQVFNDLIGPSSQSLCRFYNGTLNSTTQVECTYNMLTNMKEMPTYSQYPDLGWSKYWHFRMLWVFFDLLMDCVYLIDTFLNYRMGYMDQGLVVREAEKVTKAYWQSKQYRIDGISLIPLDYILGWPIPYINWRGLPILRLNRLIRYKRVRNCLERTETRSSMPNAFRVVVVVWYIVIIIHWNACLYFWISEWIGLGTDAWVYGHLNKQSLPDDITDTLLRRYVYSFYWSTLILTTIGEVPSPVRNIEYAFVTLDLMCGVLIFATIVGNVGSMISNMSAARTEFQNKMDGIKQYMELRKVSKQLEIRVIKWFDYLWTNKQSLSDQQVLKVLPDKLQAEIAMQVHFETLRKVRIFQDCEAGLLAELVLKLQLQVFSPGDFICKKGDIGREMYIVKRGRLQVVDDDGKKVFVTLQEGSVFGELSILNIAGSKNGNRRTANVRSVGYTDLFVLSKTDLWNALREYPDARKLLLAKGREILKKDNLLDENAPEEQKTVEEIAEHLNNAVKVLQTRMARLIVEHSSTEGKLMKRIEMLEKHLSRYKALARRQKTMHGVSIDGGDISTDGVDERVRPPRLRQTKTIDLPTGTESESLLK
# Molecular target: the molecule itself
# Assay: single-molecule photobleaching step counting
protein,measurement,value
B1,stoichiometry N,4
